Data published in US20200361992A1 (PROTAGONIST THERAPEUTICS, published 2020).
Each block holds one binder with its values, some of them ahead of it. Starred links: 1 amine or outer side, 2 acyl side, 3 side chain; linkers in the order of their positions; H or OH if unused. Positions of bridges follow the written chain, without caps; N, C: chain ends. Non-standard residues stand in square brackets, D forms with d. Groups on a side chain read outwards from the residue. Primed or numbered codes have the meaning given here. *: point of attachment. PEG4′ = bifunctional PEG linker with 4 polyethylene glycol units; PEG12 = NCCOCCOCCOCCOCCOCCOCCOCCOCCOCCOCCOCCOCCC(=O)O; Phe(4-tBu) = CC(C)(C)c1ccc(C[C@H](N)C(=O)O)cc1; Dip = N[C@H](C(=O)O)C(c1ccccc1)c1ccccc1; γGlu = O=C(O)[C@H](CCC(=O)[*:2])N[*:1]; Palmitoyl = CCCCCCCCCCCCCCCC(=O)*; β3hF = N[C@H](CC(=O)O)Cc1ccccc1; Isovaleryl = CC(C)CC(=O)*; hSer = N[C@@H](CCO)C(=O)O; Nle = CCCC[C@H](N)C(=O)O; PEG1′ = not defined here; PEG2′ = not defined here; PEG8′ = not defined here; dDap = NC[C@@H](N)C(=O)O; Dap = NC[C@H](N)C(=O)O; Npc = nipecotic acid; Ahx = NCCCCCC(=O)O

Target: T1, human ferroportin (SLC40A1) fused with GFP, stably expressed in HEK293 cells (human, UniProt Q9NP59 1-571)
T1 sequence (looked up): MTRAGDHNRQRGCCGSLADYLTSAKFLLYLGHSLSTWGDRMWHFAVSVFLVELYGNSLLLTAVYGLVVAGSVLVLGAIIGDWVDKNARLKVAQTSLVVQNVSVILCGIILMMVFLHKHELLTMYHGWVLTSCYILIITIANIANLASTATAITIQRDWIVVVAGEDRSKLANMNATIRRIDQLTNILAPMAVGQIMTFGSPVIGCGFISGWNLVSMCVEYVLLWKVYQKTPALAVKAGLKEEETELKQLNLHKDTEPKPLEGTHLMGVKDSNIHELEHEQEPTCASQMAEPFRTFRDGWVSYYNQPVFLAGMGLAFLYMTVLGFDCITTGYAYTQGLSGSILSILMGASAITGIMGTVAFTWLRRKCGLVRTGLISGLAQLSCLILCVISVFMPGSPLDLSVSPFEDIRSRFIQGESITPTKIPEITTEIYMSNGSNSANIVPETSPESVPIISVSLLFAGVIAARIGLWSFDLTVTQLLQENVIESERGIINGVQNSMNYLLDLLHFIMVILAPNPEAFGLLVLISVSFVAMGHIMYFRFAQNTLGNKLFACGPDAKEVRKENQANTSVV
Assay: cell-based or functional assay

B1: Compd ID 20 (peptide)
peptide: Isovaleryl-DTHFPCIKWK([PEG12-Palmitoyl])C-NH2
modifications: disulfide 6-11 (inferred)
FPN IC50: 4 nM

B2: Compd ID 146 (peptide)
peptide: Isovaleryl-DTH[Dip]PCI[dA][β3hF]K([PEG12-Palmitoyl])[dK]C-NH2
modifications: disulfide 6-12 (inferred)
FPN IC50: 11 nM

B7: Compd ID 150 (peptide)
peptide: Isovaleryl-DTH[Dip][Npc]CI[dK][Phe(4-tBu)]K([PEG12-Palmitoyl])C[dK]-NH2
modifications: disulfide 6-11 (inferred)
FPN IC50: 22 nM

B9: Compd ID 21 (peptide)
peptide: Isovaleryl-DTHFPCI[dK]FK([PEG8′-Palmitoyl])C-NH2
modifications: disulfide 6-11 (inferred)
FPN IC50: 30 nM

B15: Compd ID 25 (peptide)
peptide: Isovaleryl-DTHFPCI[dK]FK([Ahx-Palmitoyl])C-NH2
modifications: disulfide 6-11 (inferred)
FPN IC50: 11 nM

B16: Compd ID 27 (peptide)
peptide: Isovaleryl-DTHFPCI[dK]FK([γGlu-Palmitoyl])C-NH2
modifications: disulfide 6-11 (inferred)
FPN IC50: 35 nM

B17: Compd ID 26 (peptide)
peptide: Isovaleryl-DTHFPCI[dK]FK([PEG2′-γGlu-Palmitoyl])C-NH2
modifications: disulfide 6-11 (inferred)
FPN IC50: 13 nM

B18: Compd ID 151 (peptide)
peptide: DTHXPCIKXKXX
modifications: Isovaleric acid-DTH-[Dpa]-PCI-[(D)Lys]-[b-hPhe]-[Lys(Ahx-Palm)]-[Dap]-[N-Me-Cys]-NH2
FPN IC50: 28.5 nM

B21: Compd ID 23 (peptide)
peptide: Isovaleryl-DTHFPCI[dK]FK([PEG2′-Palmitoyl])C-NH2
modifications: disulfide 6-11 (inferred)
FPN IC50: 40 nM

B22: Compd ID 148 (peptide)
peptide: Isovaleryl-DTH[Dip]PCI[β3hF]K([PEG12-Palmitoyl])[dK]C-NH2
modifications: disulfide 6-11 (inferred)
FPN IC50: 12 nM

B23: Compd ID 14 (peptide)
peptide: Isovaleryl-DTHFPCIK(Ac)FK([PEG12-Palmitoyl])C-NH2
modifications: disulfide 6-11 (inferred)
FPN IC50: 3 nM

B25: Compd ID 15 (peptide)
peptide: Isovaleryl-DTHFPCI[Nle]FK([PEG12-Palmitoyl])C-NH2
modifications: disulfide 6-11 (inferred)
FPN IC50: 2 nM

B26: Compd ID 22 (peptide)
peptide: Isovaleryl-DTHFPCI[dK]FK([PEG4′-Palmitoyl])C-NH2
modifications: disulfide 6-11 (inferred)
FPN IC50: 17 nM

B29: Compd ID 147 (peptide)
peptide: Isovaleryl-DTH[Dip]PCII[β3hF]K([PEG12-Palmitoyl])[dK]C-NH2
modifications: disulfide 6-12 (inferred)
FPN IC50: 24 nM

B30: Compd ID 11 (peptide)
peptide: DTHFPCIXFKC
modifications: Isovaleric acid-DTHFPCI-[Orn]-[Phe]-Lys[PEG11-Palm]-C-NH2
FPN IC50: 4 nM

B32: Compd ID 12 (peptide)
peptide: Isovaleryl-DTHFPCI[hSer]FK([PEG12-Palmitoyl])C-NH2
modifications: disulfide 6-11 (inferred)
FPN IC50: 2 nM

B34: Compd ID 149 (peptide)
peptide: Isovaleryl-DTH[Dip][Npc]CI[dK][Phe(4-tBu)]K([PEG12-Palmitoyl])[dK]C-NH2
modifications: disulfide 6-12 (inferred)
FPN IC50: 17 nM

B35: Compd ID 24 (peptide)
peptide: Isovaleryl-DTHFPCI[dK]FK([PEG1′-Palmitoyl])C-NH2
modifications: disulfide 6-11 (inferred)
FPN IC50: 17 nM

B36: Compd ID 28 (peptide)
peptide: Isovaleryl-DTHFPCI[dK]FK([γGlu-PEG2′-Palmitoyl])C-NH2
modifications: disulfide 6-11 (inferred)
FPN IC50: 23 nM

B37: Compd ID 13 (peptide)
peptide: Isovaleryl-DTHFPCIQFK([PEG12-Palmitoyl])C-NH2
modifications: disulfide 6-11 (inferred)
FPN IC50: 4 nM

More lines, now with the values ahead:

FPN IC50: 19 nM
B3: Compd ID 153 (peptide)
peptide: DTHXPCIKXKKC
modifications: Isovaleric acid-DTH-[Dpa]-PCI-[(D)Lys-Peg11*]-[b-hPhe]-[Lys(Peg11-Palm)]-[(D)Lys-Peg11*]-C-NH2 (*PEG11-OMe)

FPN IC50: 6 nM
B4: Compd ID 164 (peptide)
peptide: Isovaleryl-DTH[Dip]PCI[dK][β3hF][Dap]([dDap-Palmitoyl])C-NH2
modifications: disulfide 6-11 (inferred)

FPN IC50: 8 nM
B5: Compd ID 162 (peptide)
peptide: Isovaleryl-DTH[Dip]PCI[dK][β3hF][Dap]([Dap-Palmitoyl])C-NH2
modifications: disulfide 6-11 (inferred)

FPN IC50: 30 nM
B6: Ref. Compd 1 (peptide)
peptide: DTHFPCIKFKPRSKGCK
modifications: Isovaleric acid-DTHFPCIKF-Lys[PEG11-Palm]-PRSKGCK-NH2

FPN IC50: 6 nM
B8: Compd ID 166 (peptide)
peptide: DTHXPCIKXKKC
modifications: Isovaleric acid-DTH-[Dpa]-PCI-[(D)Lys-Peg11*]-[b-hPhe]-[Lys(Ahx-Palm)]-[(D)Lys-Peg11*]-C-NH2 (*PEG11-OMe)

FPN IC50: 6 nM
B10: Compd ID 158 (peptide)
peptide: DTHXPCIKXKKC
modifications: Isovaleric acid-DTH-[Dpa]-PCI-[(D)Lys]-[b-hPhe]-[Lys(IsoGlu-Palm)]-[(D)Lys]-C-NH2

FPN IC50: 6 nM
B11: Compd ID 165 (peptide)
peptide: DTHXPCIKXKKC
modifications: Isovaleric acid-DTH-[Dpa]-PCI-[(D)Lys]-[b-hPhe]-[Lys(Ahx-Palm)]-[(D)Lys]-C-NH2

FPN IC50: 10 nM
B12: Compd ID 161 (peptide)
peptide: DTHXPCIKXKC
modifications: Isovaleric acid-DTH-[Dpa]-PCI-[(D)Lys]-[b-hPhe]-[Lys(dDap-Palm)]-C-NH2

FPN IC50: 347 nM
B13: Compd ID 157 (peptide)
peptide: DTHXPCIKXKKC
modifications: Isovaleric acid-DTH-[Dpa]-PCI-[(D)Lys]-[b-hPhe]-[Lys-Peg11*]-[(D)Lys]-C-NH2 (*PEG11-OMe)

FPN IC50: 404 nM
B14: Compd ID 154 (peptide)
peptide: DTHXPCIKXKKC
modifications: Isovaleric acid-DTH-[Dpa]-PCI-[(D)Lys]-[b-hPhe]-[Lys-Peg11]-[(D)Lys]-C-NH2

FPN IC50: 81 nM
B19: Compd ID 167 (peptide)
peptide: DTHXPCIKFKKC
modifications: Isovaleric Acid-D-T-H-[Dpa]-(D)Pro-C-I-(D)Lys-F-[Lys_Peg11_Palm]-(D)Lys-C-NH2

FPN IC50: 146 nM
B20: Compd ID 152 (peptide)
peptide: DTHXPCIKXKKC
modifications: Isovaleric acid-DTH-[Dpa]-PCI-[(D)Lys]-[b-hPhe]-[Lys(Ac)]-[(D)Lys]-C-NH2

FPN IC50: 125 nM
B24: Compd ID 156 (peptide)
peptide: DTHXPCIKXKKC
modifications: Isovaleric acid-DTH-[Dpa]-PCI-[(D)Lys]-[b-hPhe]-[Lys(Peg11-Lauryl)]-[(D)Lys]-C-NH2

FPN IC50: 7 nM
B27: Compd ID 163 (peptide)
peptide: Isovaleryl-DTH[Dip]PCI[dK][β3hF][Dap]([dDap-Palmitoyl])C-NH2
modifications: disulfide 6-11 (inferred)

FPN IC50: 4 nM
B28: Compd ID 159 (peptide)
peptide: DTHXPCIKXKKC
modifications: Isovaleric acid-DTH-[Dpa]-PCI-[(D)Lys-Ac]-[b-hPhe]-[Lys(Peg11-Palm)]-[(D)Lys-Ac]-C-NH2

FPN IC50: 279 nM
B31: Compd ID 155 (peptide)
peptide: DTHXPCIKXKKC
modifications: Isovaleric acid-DTH-[Dpa]-PCI-[(D)Lys]-[b-hPhe]-[Lys(Peg11-Octane)]-[(D)Lys]-C-NH2

FPN IC50: 4 nM
B33: Compd ID 160 (peptide)
peptide: DTHXPCIKXKC
modifications: Isovaleric acid-DTH-[Dpa]-PCI-[(D)Lys]-[b-hPhe]-[Lys(Dap-Palm)]-C-NH2

FPN IC50: 54 nM
B38: Compd ID 168 (peptide)
peptide: DTHXPCIKFKKC
modifications: Isovaleric_Acid-D-T-H-bhPhe-(D)Pro-C-I-(D)Lys-F-[Lys_Peg11_Palm]-(D)Lys-C-NH2
